In PMC5100602:

Target: Gk-S15 (ribosomal protein S15) (Geobacillus kaustophilus) (UniProt Q5L0I3)
Test: filter binding
Details: SELEX Binding Buffer A: 50 mM Tris/acetate pH 7.5, 20 mM Mg-acetate, 270 mM KCl, 5 mM DTT, 0.02% BSA, 25 C, 30 min; filter binding (nitrocellulose/nylon) as …

Work on Gk-mRNA yielded a Kd of 0.7 nM.
